Test results as given in patent US20120283172A1.

Each substance was assayed against human growth hormone receptor on IM-9 cells (human) (UniProt P10912) (assay: not given).
Sequence of UniProt P10912 (P10912 19-638): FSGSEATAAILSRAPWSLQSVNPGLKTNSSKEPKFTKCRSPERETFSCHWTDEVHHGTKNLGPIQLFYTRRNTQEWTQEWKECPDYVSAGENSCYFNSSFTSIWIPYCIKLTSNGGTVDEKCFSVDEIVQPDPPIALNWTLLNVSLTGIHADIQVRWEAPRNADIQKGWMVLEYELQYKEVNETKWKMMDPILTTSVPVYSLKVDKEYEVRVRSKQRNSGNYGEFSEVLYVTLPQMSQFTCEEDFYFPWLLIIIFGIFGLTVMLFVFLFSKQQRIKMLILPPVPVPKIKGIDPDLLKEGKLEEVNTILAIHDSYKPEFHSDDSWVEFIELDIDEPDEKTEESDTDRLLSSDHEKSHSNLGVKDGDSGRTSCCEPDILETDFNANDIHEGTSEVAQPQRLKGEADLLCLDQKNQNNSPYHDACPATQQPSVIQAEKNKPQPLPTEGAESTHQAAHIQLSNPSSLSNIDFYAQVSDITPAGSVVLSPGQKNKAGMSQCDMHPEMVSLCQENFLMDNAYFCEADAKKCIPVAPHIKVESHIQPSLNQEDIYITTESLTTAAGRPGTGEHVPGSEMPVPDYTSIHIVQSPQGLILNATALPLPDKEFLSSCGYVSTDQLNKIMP

Row | EC50, STAT5 phosphorylation in IM-9 cells (intracellular phospho-STAT5 staining, FACS, MFI PE) [nM] | Substance
1 | 4.1 | (His)F92-pAF-30K (ligand)
2 | 1.5 | (His)F92pAF-5K (ligand)
3 | 4.6 | (His)F92pAF-20K (ligand)
4 | 0.9 | hGH F92pAF (from UniProt P01241 27-217) (ligand)

Target: human growth hormone receptor on IM-9 cells (human) (UniProt P10912)
Test: not given
Remark: another data set of the same source

Row | EC50, STAT5 phosphorylation in IM-9 cells (intracellular phospho-STAT5 staining, FACS, MFI PE) [nM] | Substance
5 | 1.1 | hGH F92pAF (from UniProt P01241 27-217) (ligand)

These substances were tested against human growth hormone receptor on IM-9 cells (human) (UniProt P10912) (assay: cell-based or functional assay).

Row | EC50 of STAT5 phosphorylation in IM-9 cells (MFI by intracellular phospho-STAT5 staining) [nM] | Substance
6 | 0.8 | His-tagged hGH Y143pAF (from UniProt P01241 27-217) (ligand)
7 | 1.3 | hGH A155pAF (from UniProt P01241 27-217) (ligand)
8 | 0.9 | hGH E88pAF (from UniProt P01241 27-217) (ligand)
9 | 0.8 | hGH F92pAF (from UniProt P01241 27-217) (ligand)
10 | 3.3 | hGH F139pAF (from UniProt P01241 27-217) (ligand)
11 | 0.8 | hGH G131pAF (from UniProt P01241 27-217) (ligand)
12 | 1.4 | hGH G136pAF (from UniProt P01241 27-217) (ligand)
13 | 2.7 | hGH K140pAF (from UniProt P01241 27-217) (ligand)
14 | 8.5 | hGH N99pAF (from UniProt P01241 27-217) (ligand)
15 | 1 | hGH P133pAF (from UniProt P01241 27-217) (ligand)
16 | 2 | hGH Q91pAF (from UniProt P01241 27-217) (ligand)
17 | 0.9 | hGH R134pAF (from UniProt P01241 27-217) (ligand)
18 | 16.7 | hGH S95pAF (from UniProt P01241 27-217) (ligand)
19 | 0.9 | hGH T135pAF (from UniProt P01241 27-217) (ligand)
20 | 130000 | hGH Y103pAF (from UniProt P01241 27-217) (ligand)
21 | 1 | hGH Y111pAF (from UniProt P01241 27-217) (ligand)
22 | > 200000 | rat growth hormone, wild type (from UniProt P01244 27-216) (ligand)
